Where two headings read alike, the source gives them in different places.
Columns and labels:
[1] = target: Human FcγRIIIa_V158 (human)
[2] = target: Human FcγRIIIa_V158 (human); remark: listed apart in the source

Substance	relative ADCC activity (NK cell line expressing FcγRIIIa V158; target cells expressing a receptor of the EGFR family; relative to a reference material set to 100%) [1] [%]	relative ADCC activity (NK cell line expressing FcγRIIIa V158; target cells expressing a receptor of the EGFR family; relative to a reference material set to 100%) [2] [%]
IgG1, di-sialylated variant (antibody)	115	
IgG1, hyper-galactosylated variant (antibody)		118
IgG1, hypo-galactosylated variant (antibody)		66
IgG1, mono-sialylated variant (antibody)	104	
